Residue numbers refer to the chain shown, from its start.
Experiments:
[1] = molecular target: T1, H. pylori glutamate racemase (murI gene product) (Helicobacter pylori, UniProt Q9ZLT0); test: Glutamate racemase activity, conversion of D-glutamate to L-glutamate (two enzyme and single enzyme coupled assays); type: biochemical; conditions: purified recombinant enzyme
T1 construct: made in house; host or cells: E. coli BL21(DE3) carrying pET-23-murI and pACYC-groE (GroES/GroEL co-expressed)
T1 sequence (Q9ZLT0 1-255): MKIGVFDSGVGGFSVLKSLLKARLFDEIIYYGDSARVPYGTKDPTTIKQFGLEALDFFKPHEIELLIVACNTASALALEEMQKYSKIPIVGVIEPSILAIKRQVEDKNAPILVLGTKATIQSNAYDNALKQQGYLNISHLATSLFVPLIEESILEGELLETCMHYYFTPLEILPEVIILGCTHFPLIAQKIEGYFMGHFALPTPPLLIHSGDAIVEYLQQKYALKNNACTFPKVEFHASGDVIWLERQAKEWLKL
Method: The activity of glutamate racemase, interconversion of the enantiomers of glutamic acid, was measured using D-glutamic acid as substrate. The method of Gallo and Knowles (Gallo, K. A. and Knowles, J. R., 1993, Biochmistry 32, 3981-3990) that was used to measure the glutamate racemase activity of Lactobacillus fermenti was adapted for the measurement of glutamate racemase activity of the H. pylori murI gene product isolated as a recombinant protein from E. coli. […] Initial rates were determined by following the increase in absorbance at 500 nm in a reaction volume of 200 μl containing 50 mM Tris-HCl, pH 7.8, 4% v/v glycerol, 10 mM NAD, 2 mM INT, 60 Units/ml L-glutamate dehydrogenase, 5 Units/ml diaphorase, and varying concentrations of either substrate (from 0.063 mM to 250 mM D-glutamic acid) or purified enzyme (from 1 μg to 50 μg). After a preincubation of all reagents except either the substrate (D-glutamic acid) or the enzyme (murI gene product) for a period of 5 minutes, reactions were initiated by adding the missing ingredient (i.e., the enzyme or the subtrate, as required), and the increase in optical density at 500 nm was measured in a Microplate Spectophotometer System (Molecular Devices, Spectra MAX 250). Measurements were followed for 20 minutes, and initial velocities were derived by calculating the maximum slope for the absorbance increases. […]

[2] = molecular target: T2, H. pylori MurC (Helicobacter pylori, UniProt Q9ZLL2); test: MurC continuous assay, ADP formation coupled to pyruvate kinase/lactate dehydrogenase; type: biochemical; conditions: 500 μM UDP-N-acetylmuramate, 1 mM L-alanine, 1 mM ATP, 0.0018 mg/ml MurC, 37° C.
T2 sequence (Q9ZLL2 1-449): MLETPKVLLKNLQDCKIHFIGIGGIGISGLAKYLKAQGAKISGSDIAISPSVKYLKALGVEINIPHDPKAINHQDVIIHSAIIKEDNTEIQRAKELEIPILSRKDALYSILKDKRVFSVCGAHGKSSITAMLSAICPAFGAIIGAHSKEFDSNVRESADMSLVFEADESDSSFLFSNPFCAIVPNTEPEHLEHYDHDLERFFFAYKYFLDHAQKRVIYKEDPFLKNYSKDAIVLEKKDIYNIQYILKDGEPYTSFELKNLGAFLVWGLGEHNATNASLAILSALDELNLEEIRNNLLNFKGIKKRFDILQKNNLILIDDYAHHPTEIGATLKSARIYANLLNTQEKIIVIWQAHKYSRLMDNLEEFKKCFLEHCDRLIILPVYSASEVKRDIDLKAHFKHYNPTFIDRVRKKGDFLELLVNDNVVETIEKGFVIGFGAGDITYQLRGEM
Method: Purified H. pylori MurC was assayed using a continuous assay by coupling ADP formation with NADH oxidation by the pyruvate kinase/lactate dehydrogenase enzyme couple. Assay conditions were as follows: 100 mM Tris·HCl pH 8.0, 2.5 mM 2-mercaptoethanol, 20 mM KCl, 10 mM DTT, 2 mM MgCl2, 10 mM PEP, 0.15 mM NADH, 3.5 units of pyruvate kinase, 5.5 units of lactate dehydrogenase (Sigma), 500 μM UDP-N-acetylmuramate, 1 mM L-alanine, 1 mM ATP and 0.0018 mg/ml MurC at 37° C. […] Previously boiled enzyme could not support ADP formation. Steady state analysis of the dependence of reaction velocity on substrate concentration was done by varying the concentration of a single substrate in concentrations ranging from 0.5 to 5 times Km while holding the other two substrates constant at 5 times Km concentrations.

[3] = molecular target: H. pylori Asd (Helicobacter pylori, UniProt Q9ZK28); test: Asd assay, reverse reaction, NADPH formation
Method: The enzymatic activity of purified His-tagged H. pylori Asd (SEQ ID NO: 6545) was characterized by assaying the reverse reaction of phosphorylation of L-aspartate-β-semialdehyde (ASA) to L-p-aspartyl phosphate, with concomitant reduction of NADP^+ to NADPH. The formation of NADPH was detected by its absorbance, 340 nm, or by its fluorescence, excitation =340 nm, emission 455 nm.
ASA in 4 N HCl was prepared daily for use in Asd assays by partial neutralization with addition of 1.0 equivalent of […], with a resulting pH=1-2. The amount of ASA was determined enzymatically by complete reaction in the presence of excess NADP^+and phosphate. […] Assays were performed in the following buffer: 200 mM HEPES, 0.3 mM NADP^+, 30 mM NaH2PO4, 1.0 mM DTT, pH 7.5 or pH 8.0. ASA was used in the assay at concentrations of 5-165 μM by diluting the partially-neutralized ASA stock into the assay 10-200 fold, leading to a decrease in pH of 0.1 units or less. Reaction was initiated with the addition of enzyme to a final concentration of 3.5-70 nM.

B1: H. pylori glutamate racemase: purified recombinant H. pylori glutamate racemase (SEQ ID NO: 7635) (protein, listed as Helicobacter pylori)
chain: T1 sequence (Q9ZLT0 1-255)
modifications: misc_feature (B) LOCATION 1...255; hypothetical: YES
Work on B1 yielded a kcat [1] of 0.143 s⁻¹ and a Vmax ([1]; D-glutamate substrate) of about 300 nmoles/min/mg protein.

B2: H. pylori MurC: His-tagged H. pylori MurC (SEQ ID NO: 7607) purified from E. coli (protein, listed as Helicobacter pylori)
chain: T2 sequence (Q9ZLL2 1-449) with N313D, A329T
modifications: His tag; misc_feature (B) LOCATION 1...449; hypothetical: YES
B2 was tested, and the specific activity [2] was 5900 nmol/min/mg.

B3: H. pylori Asd: purified His-tagged H. pylori Asd (SEQ ID NO: 6545) (protein, listed as Helicobacter pylori)
chain: MKTYNVAIVGASGAVGQELIKGLENSFFPIKKFVPLASARSAGKKIRAFNKDYEILETTHEVFEKEEIDIAFFSAGGSVSEEFAISASKTALVIDNTSFFRLNKDVPLVVPEINAQEIFNAPLNIIANPNCSTIQMTQILNPLHLHFKIKSVIVSTYQAVSGAGNKGIESLKNELKTALEHLEKDPAIDLNQVLQAGAFAYPIAFNAIAHIDTFKENGYTKEELKMVHETHKIMGVDFPISATCVRVPVLRSHSESLSIAFEKEFDLKEVYEVLKNAPSVVVCDDPSHNLYPTPLKASHTDSVFIGRLRKDLFDKKTLHGFCVADQLRVGAATNALKIALHYIKNA
modifications: His tag; misc_feature (B) LOCATION 1...346; hypothetical: YES
For B3, the “decrease of kcat relative to the E. coli enzyme” value [3] was “about 5 fold”, the “effect of ionic strength on activity” value ([3]; ionic strength as high as 0.7 M) was “unaffected” and the kcat ([3]; pH 8.0) was 5.4 s⁻¹.
